# From patent US20050042720A1, “Novel promiscuous G alpha protein mutants and their use” (7TM Pharma A/S, priority 2003, published 2005)
# Tests used:
# Format in all cases: cell-based
# phospholipase Cβ [1] = experiment: PI-hydrolysis assay in COS7 cells cotransfected with receptor and mutant/chimeric Gαq subunits (Example 3)
# From the text: Murine wild type Gαq was cloned from mouse brain by RT-PCR and inserted into the BamHI-NslI-sites of pcDNA1.1. All wild type and mutant Gα subunits contained an internal hemagglutinin epitope tag DVPDYA (Wedegaertner et al., 1993) replacing Gαqwt residues 125-130. To create the C-terminally modified Gαqi5 subunit, in which the last five aa of wt Gαq were replaced with the corresponding Gαi sequence, a 175-bp BglII-NslI fragment was replaced, in a two piece ligation, with a synthetic DNA fragment, containing the desired codon changes. Gαqs5/z5 were prepared in an analogous fashion. GαqG66x mutants were prepared with the Stratagene quick change mutagenesis kit according to the manufacturer's instructions. To generate GαqG66Xi5/s5/z5(X=D,V,N,K), a 175 bp BglII-NsiI fragment was removed from GαqG66X and replaced with the corresponding BglII-NsiI fragment of Gαqi5 and Gαqs5/z5, respectively. The correctness of all PCR-derived sequences was verified by sequencing in both directions. […]
# (§1) 18-24 h after transfections cells were splitted into 35-mm dishes in culture medium supplemented with 3 μCi/ml [3H]myo-inositol (20 Ci/mmol; Amersham). […] Cells were then stimulated in the same buffer with the appropriate agonist ligands for 1 h (37° C.), and increases in intracellular inositolphosphate determined by anion exchange chromatography as described (Kostenis et al., 1997).
# [2] = test system: chemokine CXCR1 and dopamine D2 receptor; experiment: Calcium mobilization assay in COS7 cells cotransfected with receptor and Gα16 constructs; conditions: CXCR1 (interleukin 8) and D2 ((−)quinpirole) receptors, FIG. 13
# Protocol: 24 h after transfection, COS7 cells were split into 96 well plates at a density of ˜30,000 cells per well. 18-24 h later cells were loaded with a calcium sensitive dye (calcium assay kit from Molecular devices) for 1 h (37 C, 5% CO2) and then for 1 h at room temperature. Ligands were transferred to the cell plate from the sample plate using the Novostar's integrated pipette. To obtain the specific fluorescence response, baseline fluorescence counts before addition of ligands were subtracted from the peak of the calcium response Specific responses were used to plot the concentration response curve.
# Murine Wild type Gα16 was cloned as described above. […] was prepared with the Stratagene quick change mutagenesis kit according to the manufacturers instructions. The correctness of all PCR-derived sequences was verified by sequencing in both directions.
# COS7 cells were grown and transfected as described above.
# 24 h after transfection, COS7 cells were split into 96 well plates at a density of […] cells per well. 18-24 h later cells were loaded with a calcium sensitive dye (calcium assay kit from Molecular devices) for 1 h (37 C, 5% CO2) and then for 1 h at room temperature. […] To obtain the specific fluorescence response, baseline fluorescence counts before addition of ligands were subtracted from the peak of the calcium response. […]
# phospholipase Cβ [3] = experiment: Basal IP formation in COS7 cells transfected with Gα subunit alone (constitutive activity); conditions: no receptor, no ligand, FIG. 6
# Protocol: Basal IP3 formation was determined in COS7 cells transiently transfected with vector DNA, Gαqwt, GαqG66D and the constitutively active Gα15Q212L mutant as described in detail in the Examples. Data represent mean values±SEM of 4 independent experiments performed in duplicate.
# COS7 cells were grown in Dulbecco's modified Eagles medium supplemented with 10% (vol/vol) fetal calf serum, Penicillin-Streptomycin (10000 IU/ml-10000 μg/ml) and 2 mM L-Glutamin in a humidified 5% CO2 incubator. For transfections, 1×10^6 cells were seeded into 100-mm dishes. About 24 h later, cells were cotransfected with the indicated G protein and receptor constructs (1:1 ratio) by using the Fugene transfection reagent as per manufacturer's instructions.
# as §1, with “split” for “splitted”, “35 mm” for “35-mm”, “Ci/mmol:” for “Ci/mmol;”, “45 min” for “1 h”, “1997)” for “1997).”
# To test whether the mutant Gαq subunit differs from Gαq wt in its ability to signal to phospholipase Cβ, plasmids encoding the respective cDNAs were transiently transfected into COS7 cells and IP1 accumulation was measured.
molecule,measurement,setting,value
"GαqG66Di5: Gαq combining G66D linker I mutation with C-terminal five amino acids of Gαi; SEQ ID No. 6 (protein, listed as Mus musculus, (66)..(66) Xaa is selected from the group consisting of Asp, Val, Asn and Lys) MTLESIMACCLSEEAKEARRINDEIERHVRRDKRDARRELKLLLLGTGESGKSTFIKQMRIIHGSXYSDEDKRGFTKLVYQNIFTAMQAMIRAMDTLKIPYKYEHNKAHAQLVREVDVEKVSAFENPYVDAIKSLWNDPGIQECYDRRREYQLSDSTKYYLNDLDRVADPSYLPTQQDVLRVRVPTTGIIEYPFDLQSVIFRMVDVGGQRSERRKWIHCFENVTSIMFLVALSEYDQVLVESDNENRMEESKALFRTIITYPWFQNSSVILFLNKKDLLEEKIMYSHLVDYFPEYDGPQRDAQAAREFILKMFVDLNPDSDKIIYSHFTCATDTENIRFVFAAVKDTILQLNLKDCGLF",agonist-induced IP3 / PLCβ activity,"phospholipase Cβ [1]; Gi/o coupled receptors CXCR2, CCR5, SSTR1, KOR, GPR7, HM74a, NPY4, M2, P2Y12, FIG. 11",robust IP3 increases exceeding those observed upon coexpression with the C-terminal or the G66D mutant alone
"GαqG66Ds5: Gαq combining G66D linker I mutation with C-terminal five amino acids of Gαs; SEQ ID No. 7 (protein, listed as Mus musculus, (66)..(66) Xaa is selected from the group consisting of Asp, Val, Asn and Lys) MTLESIMACCLSEEAKEARRINDEIERHVRRDKRDARRELKLLLLGTGESGKSTFIKQMRIIHGSXYSDEDKRGFTKLVYQNIFTAMQAMIRAMDTLKIPYKYEHNKAHAQLVREVDVEKVSAFENPYVDAIKSLWNDPGIQECYDRRREYQLSDSTKYYLNDLDRVADPSYLPTQQDVLRVRVPTTGIIEYPFDLQSVIFRMVDVGGQRSERRKWIHCFENVTSIMFLVALSEYDQVLVESDNENRMEESKALFRTIITYPWFQNSSVILFLNKKDLLEEKIMYSHLVDYFPEYDGPQRDAQAAREFILKMFVDLNPDSDKIIYSHFTCATDTENIRFVFAAVKDTILQLNLKQYELL",response (stimulation of PLCβ) versus individual mutants,"phospholipase Cβ [1]; coexpressed non-Gq-selective receptor, Gs-linked GLP1, GIP, DP, adrenergic β2 (FIG. 12)",robust response exceeding the response observed upon coexpression with the C-terminal or the GαwG66D mutant alone
"Gα16: Murine wild type Gα16 (protein, UniProt P30678 1-374, looked up) Guanine nucleotide-binding …: MARSLTWGCCPWCLTEEEKTAARIDQEINRILLEQKKQEREELKLLLLGPGESGKSTFIKQMRIIHGVGYSEEDRRAFRLLIYQNIFVSMQAMIDAMDRLQIPFSRPDSKQHASLVMTQDPYKVSTFEKPYAVAMQYLWRDAGIRACYERRREFHLLDSAVYYLSHLERISEDSYIPTAQDVLRSRMPTTGINEYCFSVKKTKLRIVDVGGQRSERRKWIHCFENVIALIYLASLSEYDQCLEENDQENRMEESLALFSTILELPWFKSTSVILFLNKTDILEDKIHTSHLATYFPSFQGPRRDAEAAKSFILDMYARVYASCAEPQDGGRKGSRARRFFAHFTCATDTQSVRSVFKDVRDSVLARYLDEINLL",agonist-induced intracellular calcium mobilization,[2],gain the ability to stimulate calcium mobilization
"Gα15Q212L: GTPase defective, constitutively active Gα15 mutant replacing Glutamine 212 by Leucine (protein, UniProt P30678 1-374, looked up, variant Q212L) Guanine nucleotide-binding …: MARSLTWGCCPWCLTEEEKTAARIDQEINRILLEQKKQEREELKLLLLGPGESGKSTFIKQMRIIHGVGYSEEDRRAFRLLIYQNIFVSMQAMIDAMDRLQIPFSRPDSKQHASLVMTQDPYKVSTFEKPYAVAMQYLWRDAGIRACYERRREFHLLDSAVYYLSHLERISEDSYIPTAQDVLRSRMPTTGINEYCFSVKKTKLRIVDVGGLRSERRKWIHCFENVIALIYLASLSEYDQCLEENDQENRMEESLALFSTILELPWFKSTSVILFLNKTDILEDKIHTSHLATYFPSFQGPRRDAEAAKSFILDMYARVYASCAEPQDGGRKGSRARRFFAHFTCATDTQSVRSVFKDVRDSVLARYLDEINLL",basal IP1 accumulation / ability to activate PLCβ (constitutive activity),phospholipase Cβ [3],robust IP1 increase
"Gα16G69D: Gα16 with glycine 69 to aspartate mutation in linker I; SEQ ID No 5 (protein, listed as Homo sapiens, (69)..(69) Xaa is selected from the group consisting of Asp, Val, Asn and Lys) MARSLTWRCCPWCLTEDEKAAARVDQEINRILLEQKKQDRGELKLLLLGPGESGKSTFIKQMRIIHGAXYSEEERKGFRPLVYQNIFVSMRAMIEAMERLQIPFSRPESKHHASLVMSQDPYKVTTFEKRYAAAMQWLWRDAGIRACYERRREFHLLDSAVYYLSHLERITEEGYVPTAQDVLRSRMPTTGINEYCFSVQKTNLRIVDVGGQKSERKKWIHCFENVIALIYLASLSEYDQCLEENNQENRMKESLALFGTILELPWFKSTSVILFLNKTDILEEKIPTSHLATYFPSFQGPKQDAEAAKRFILDMYTRMYTGCVDGPEGSKKGARSRRLFSHYTCATDTQNIRKVFKDVRDSVLARYLDEINLL",agonist-induced intracellular calcium mobilization,[2],significantly increased
